T1: mouse B7-H3 on CHO-mouse B7-H3 cells (mouse, UniProt Q8VE98 29-316)
T1 construct: whole, on cells; also called CHO-S-mouse-B7-H3; murine B7-H3
T1 sequence (looked up): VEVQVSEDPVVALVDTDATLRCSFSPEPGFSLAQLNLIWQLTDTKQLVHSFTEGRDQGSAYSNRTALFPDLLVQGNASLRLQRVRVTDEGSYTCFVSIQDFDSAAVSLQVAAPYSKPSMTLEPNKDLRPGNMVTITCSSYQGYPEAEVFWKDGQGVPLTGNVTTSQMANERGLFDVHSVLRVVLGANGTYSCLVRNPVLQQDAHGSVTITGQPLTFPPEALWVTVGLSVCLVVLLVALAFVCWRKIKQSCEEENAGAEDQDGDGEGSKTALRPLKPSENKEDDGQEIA

T2: B7-H3 on NCI-H446 cells (UniProt Q5ZPR3 29-534)
T2 construct: whole, on cells
T2 sequence (looked up): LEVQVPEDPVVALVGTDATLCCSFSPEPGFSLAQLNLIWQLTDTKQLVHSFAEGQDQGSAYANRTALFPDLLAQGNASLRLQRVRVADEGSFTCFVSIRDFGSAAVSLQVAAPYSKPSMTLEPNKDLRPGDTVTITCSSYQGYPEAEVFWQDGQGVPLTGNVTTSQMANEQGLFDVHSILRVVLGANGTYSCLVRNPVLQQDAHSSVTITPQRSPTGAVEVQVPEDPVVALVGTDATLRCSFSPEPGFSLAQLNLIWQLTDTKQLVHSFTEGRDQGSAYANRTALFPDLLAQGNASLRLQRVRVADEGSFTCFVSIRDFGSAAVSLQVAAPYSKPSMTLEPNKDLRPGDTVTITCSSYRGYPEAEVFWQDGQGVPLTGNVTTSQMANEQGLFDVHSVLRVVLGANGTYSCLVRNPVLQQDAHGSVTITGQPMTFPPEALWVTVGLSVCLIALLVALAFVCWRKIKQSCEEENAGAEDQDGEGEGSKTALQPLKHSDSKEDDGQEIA

B1: 48-B4-F4-E4 (antibody, human IgG1, kappa)
heavy: not shown
light: DVLMTQTPLSLPVSLGDQVSISCRASQSLANSYGKTYLSWYLHKPGQSPQLLIYGISNRFSGVPDRFSGSGSGTDFTLKISTIKPEDLGMYYCLHGTHQPLTFGAGTKLELKRTVAAPSVFIFPPSDEQLKSGTASVVCLLNNFYPREAKVQWKVDNALQSGNSQESVTEQDSKDSTYSLSSTLTLSKADYEKHKVYACEVTHQGLSSPVTKSFNRGEC
notes: also called CE4
B2: 9-A2-G3-H11 (antibody, human IgG1, kappa, V domains shown)
VH: EVQLQQSGPELVRPGESVKISCKGSGYTFTDYAIHWVKQSHAKSLEWIGVISTYYDNTYYNQKFKGRATMTVDKSSSTAYMELARLTSEDSAIYYCARGYGSSFNWYFDVWGAGTTVTVSS
VL: DIVMTQSPSSLAVSAGEKVTMSCKSSQSLLNSRTRKNYLAWYQQKPGQSPKLLIYWASTRESGVPDRFTGSGSGTDFTLTITSVQAEDLAVYYCKQSYNLYTFGGGTKLEIKR
B3: 28-B5-B6-C6 (antibody, human IgG1, kappa, V domains shown)
VH: EVKLQESGPGLVKPSQSLSLTCTVTGYSITSDYAWNWIRQFPGNILEWMGYISYSGSASYNPSLQSRISVTRDTSKNQFFLQLNSVTTEDTATYYCVRSLGRRWYFGFWGAGTTVTVSS
VL: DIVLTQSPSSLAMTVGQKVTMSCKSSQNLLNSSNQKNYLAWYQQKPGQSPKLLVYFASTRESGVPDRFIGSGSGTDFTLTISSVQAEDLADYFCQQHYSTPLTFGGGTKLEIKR
B4: 16-D10-E1-E1 (antibody, human IgG1, kappa, V domains shown)
VH: EVQLQQSGPELVRPGVSVKISCKGSGYTFTDYAMHWVKQSHAKSLEWIGVINTYSGNTYYSQKFKGKATMTVDKSSSTAYMELARLTSEDSAIYYCARGAGYFPYWYFDVWGAGTTVTVSS
VL: DIQMIQSPSYLAASPGETITINCRASKSISKYLAWYQEKPGKTNKLLIYSGSTLQSGIPSRFSGSGSGTDFTLTISSLEPEDFAMYYCQQHYEYPYTFGGGTKLEIKR
B5: 9-F1-D9-F10 (antibody, human IgG1, kappa, V domains shown)
VH: EVQLVESGGGLVQPGGSLRVSCATSGFTFSDYYMSWVRQPPGKALEWLGFIRNKINGYTTEYSASVKGRFTISRDNSQSILYLQMNTLRAEDSATYYCTRDSSQRPFAYWGQGTLVTVSA
VL: DIVMTQSPSSLSVSAGEKVTMTCKSSQSLLNSRSQKNFLAWYQQKPGQPPKLLIYGASTRESGVPDRFTGSGSGTDFTLTISNVQAEDLAVYYCQNDLTYPLTFGAGTKLELKR
B6: 19-F1-E9-B11 (antibody, human IgG1, kappa, V domains shown)
VH: EVQLQQSGPSLVKPSQTLSLTCSVTGGSITSFYWNWIRKFPGNKLEYMGYISSSGSTYYNPSLKSRISITRDTSKNQSYLQLNSVTAEDTATYYCARGGVHYGFGDYWGQGTSVTVSS
VL: DIVMTQSAPSVPVTPGESVSISCRSSKSLLHSNGNTYLYWFLQRPGQSPQLLIYRMSNLASGVPDRFSGSGSGTAFTLRISRVEAEDVGVYYCMQHLEYPLTFGAGTKLELKR
notes: also called CB11
B7: 29-A9-G8-F6 (antibody, human IgG1, kappa, V domains shown)
VH: EVQLQQSGPELVRPGVSVKISCKGSGYTFTDYSMHWVKQSHAKSLEWIGVINTSSGNTYYNLKFKGKATMTVDKSSSTAYMELARLTSEDSAIYYCSKYYGSSFHWYFDVWGAGTTVTVSS
VL: DIVMTQSPVIMSASPGEKVTMTCSASSSVSYMHWYQQKSSTSPKLWIYDTSKLASGVPGRFSGTGSGKSHSLTISSMEAEDVATYYCFQGSGYPLTFGSGTKLEIKR
B8: cAb2-z2-p6 (antibody, human IgG1, kappa, V domains shown)
VH: QVQLVESGAVVKKPGASVKVSCKASGYTLSDFNMDWVRQAPGKSLEWMGDINPNYDTITYNQKFRGRVTLTVDRSINTAYMELSRLRSDDTAVYYCARGELGRYFYVWGAGTMVTVSS
VL: DIQLTQPPSSLSASVGDRVTITCRASENVYSYLAWYQQKPGRSPQLLVYNAKTLQEGVPSRFSGSGSGTQFTLTISSLQPEDFADYYCQHHYGTPWTFGGGTKVEIKR
notes: Humanized from 28-B1-E8-C11; Human IgG1 / kappa
B9: cAb2-z5-p6 (antibody, human IgG1, kappa, V domains shown)
VH: QVQLVESGAVVKKPGASVKVSCKASGYTLSDFNMDWVRQAPGKSLEWMGDINPNYDTITYNQKFRGRVTLTVDRSINTAYMELSRLRSDDTAVYYCARGELGRYFYVWGAGTMVTVSS
VL: DIQLTQPPSSLSASVGDRVTITCRASENVYSYLAWYQQKPGRSPQLLVYNAKTLPEGVPSRFSGSGSGTQFTLTISSLQPEDFADYYCSHHYGTPWTFGGGTKVEIKR
notes: as for B8
B10: cAb2-z4-p6 (antibody, human IgG1, kappa, V domains shown)
VH: QVQLVESGAVVKKPGASVKVSCKASGYTLSDFNMDWVRQAPGKSLEWMGDINPNYDTITYNQKFRGRVTLTVDRSINTAYMELSRLRSDDTAVYYCARGELGRYFYVWGAGTMVTVSS
VL: DIQLTQPPSSLSASVGDRVTITCRASENVYSYLAWYQQKPGRSPQLLVYNAKTLQEGVPSRFSGSGSGTQFTLTISSLQPEDVADYYCQHHYGTPWTFGGGTKVEIKR
notes: as for B8
B11: cAb2-z3-p6 (antibody, human IgG1, kappa, V domains shown)
VH: QVQLVESGAVVKKPGASVKVSCKASGYTLSDFNMDWVRQAPGKSLEWMGDINPNYDTITYNQKFRGRVTLTVDRSINTAYMELSRLRSDDTAVYYCARGELGRYFYVWGAGTMVTVSS
VL: DIQLTQPPSFLSASVGDRVTITCRASENVYSYLAWYQQKPGRSPQLLVYNAKTLQEGVPSRFSGSGSGTEFTLTISSLQPEDFADYYCQHHYGTPWTFGGGTKVEIKR
notes: as for B8
B12: cAb1-uIgG1K (antibody)
heavy: not shown
light: DVLMTQTPLSLPVSLGDQVSISCRASQSLANSYGKTYLSWYLHKPGQSPQLLIYGISNRFSGVPDRFSGSGSGTDFTLKISTIKPEDLGMYYCLHGTHQPLTFGAGTKLELKRTVAAPSVFIFPPSDEQLKSGTASVVCLLNNFYPREAKVQWKVDNALQSGNSQESVTEQDSKDSTYSLSSTLTLSKADYEKHKVYACEVTHQGLSSPVTKSFNRGEC
notes: Parental chimeric antibody of the cAb1 series; also called cAb1-ulgG1K
B13: 28-B1-E8-C11 (antibody, human IgG1, kappa, V domains shown)
VH: EVKLVESGAVLVKPGASVKISCKASGYTLSDFNMDWVKQSQGKSLEWVGDINPNYDTITYNQKFRGKATLTVDRSSNTAYMELRSLTSEDSAVYYCARGELGRYFYVWGAGTTVTVSS
VL: DIQLTQPPASLSASVGETVTITCRASENVYSYLAWYRQKQGRSPQLLVYNAKTLPEGVPSRFSGSGSGTQFSLKINSLQTEDLGDYYCQHHYGTPWTFGGGTKLEIKR
notes: parent of the cAb2 humanized antibodies; also called CC11
B14: cAb2-z0-p9 (antibody, human IgG1, kappa, V domains shown)
VH: EVKLVESGAVLVKPGASVKISCKASGYTLSDFNMDWVKQSQGKSLEWVGDINPNYDTITYNQKFRGKATLTVDRSSNTAYMELRSLTSEDSAVYYCARGELGRYFYVWGAGTTVTVSS
VL: DIQLTQPPSSLSASVGDRVTITCRASENVYSYLAWYQQKPGRSPQLLVYNAKTLQEGVPSRFSGSGSGTQFTLTISSLQPEDVADYYCQHHYGTPWTFGGGTKVEIKR
notes: as for B8
B15: cAb2-z1-p9 (antibody, human IgG1, kappa, V domains shown)
VH: EVKLVESGAVLVKPGASVKISCKASGYTLSDFNMDWVKQSQGKSLEWVGDINPNYDTITYNQKFRGKATLTVDRSSNTAYMELRSLTSEDSAVYYCARGELGRYFYVWGAGTTVTVSS
VL: DIQLTQPPSSLSASVGDRVTITCRASENVYSYLAWYQQKPGRSPQLLVYNAKTLPEGVPSRFSGSGSGTQFTLTISSLQPEDFADYYCSHHYGTPWTFGGGTKVEIKR
notes: Humanized from 28-B1-E8-C11; Human IgG1 / kappa; also called cAb2-zl-p9

One experiment deals with T1, mouse B7-H3 on CHO-mouse B7-H3 cells. The experiment in a line: flow cytometry on CHO-mouse B7-H3 cells, antibody 10 µg/ml. (Flow cytometry measures light scatter and fluorescence of single cells or particles in a stream.)
In the case of B1, the binding result is recorded as “binds”.

As for B2, the binding result was “binds”.

B3: the binding result is “binds”.

Turning to B4, the binding result is “binds”.

As for B5, the binding result is listed as “binds”.

B6: the binding result is listed as “binds”.

Turning to B7, the binding result is “binds”.

The target in the next experiment is T2, B7-H3 on NCI-H446 cells. The experiment in a line: flow cytometry on NCI-H446 cells, goat anti-human Fc secondary.
For orientation: EC50 means the concentration at which the effect is half-maximal. A high value points to a need for much substance. As to B8, the EC50 amounted to 1.36 nM.

B9 showed an EC50 of 3.92 nM.

The molecule B10 returned an EC50 of 0.552 nM. This EC50 is about 7.1-fold lower than that of the molecule before.

Molecule B11 came in with an EC50 of 1.06 nM.

In turn, B12 registered an EC50 of 3.45 nM.

Regarding B13, the EC50 worked out at 4.45 nM.

B14 gave an EC50 of 1.15 nM.

Consider B15, for which the EC50 came to 2.22 nM.

A further experiment deals with T3, B7-H3 Cyno-His (cynomolgus monkey).
T3 construct: also called cynomolgus monkey B7-H3
The experiment in a line: SPR, Biacore 8K, antibody captured by anti-human IgG Fc on CM5, B7-H3 Cyno-His as analyte, 1:1 model. (Surface plasmon resonance follows binding to a sensor surface in real time, without labels.)
A word on the Kd: it is the concentration at which binding is half-saturated. As a reminder, the koff is the rate constant with which the complex falls apart. A low value points to a long-lived complex. A word on the kon: it is a measure of how fast the partners come together. In turn, B12 displayed a Kd of 3.35 nM, a koff of 5.47e-05 s⁻¹ and a kon of 16300 M⁻¹ s⁻¹.

(Values after patent publication EP4763862A1 (Beijing Tide Pharmaceutical Co., Ltd., dated 2026).)
